One assay has as its target 6×His-tagged AVR-Pia (Magnaporthe oryzae). The assay is described as follows: SPR; […] (single-cycle kinetics, […]; 25 °C; 20 mM Tris pH 8, 150 mM NaCl, 0.5 mM DTT; […]. The settings on record: both partners purified. On the technique in general: Surface plasmon resonance follows binding to a sensor surface in real time, without labels.
Another assay addresses 6×His-tagged AVR1-CO39 (Magnaporthe oryzae). The description is as above. The settings on record: both partners purified.

Usually Kd stands for a measure of binding affinity in units of concentration. Higher therefore signals lower affinity.

Chain of 6×His-tagged AVR1-CO39 (Magnaporthe oryzae) (F7J0N2 982-1116): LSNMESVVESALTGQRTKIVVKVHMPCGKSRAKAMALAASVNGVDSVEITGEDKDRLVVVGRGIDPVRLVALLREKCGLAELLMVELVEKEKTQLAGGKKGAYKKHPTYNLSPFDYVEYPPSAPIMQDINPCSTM
Chain of 6×His-tagged AVR-Pia (Magnaporthe oryzae) (F7J0N2 982-1116): as above

B1: MBP:RGA5_HMA (wild-type RGA5 HMA domain fused to the maltose-binding protein) (domain or fragment)
chain: SALTGQRTKIVVKVHMPCGKSRAKAMALAASVNGVDSVEITGEDKDRLVVVGRGIDPVRLVALLREKCGLAELLMVELVEKE
B1: the dissociation constant Kd with 6×His-tagged AVR-Pia stood at 7.2 µM; with 6×His-tagged AVR1-CO39, 4.9 µM.

The values are drawn from article PMC8938504 (Nature Communications, 2022).
